Laboratory results: US20230192903A1 (published 2023)

B1: bispecific antibody CS7 (bispecific antibody, human IgG1, kappa)
light: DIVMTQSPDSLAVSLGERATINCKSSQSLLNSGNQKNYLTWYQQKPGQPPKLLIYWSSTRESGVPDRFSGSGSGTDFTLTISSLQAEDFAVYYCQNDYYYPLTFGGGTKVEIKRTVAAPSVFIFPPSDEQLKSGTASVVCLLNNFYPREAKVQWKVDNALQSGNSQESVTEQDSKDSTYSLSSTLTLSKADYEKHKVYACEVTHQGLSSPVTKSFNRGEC
heavy 1: EVQLVESGGGLVKPGGSLRLSCAASGFSFSNSAMSWVRQAPGKGLEWVSTISSGDSYTYYADSVKGRFTISRDNAKNSLYLQMNSLRAEDTAVYYCARQGYGNALDYWGQGTLVTVSSASTKGPSVFPLAPSSKSTSGGTAALGCLVKDYFPEPVTVSWNSGALTSGVHTFPAVLQSSGLYSLSSVVTVPSSSLGTQTYICNVNHKPSNTKVDKKVEPKSCDKTHTCPPCPAPPVAGPSVFLFPPKPKDTLMISRTPEVTCVVVDVSHEAPEVQFNWYVDGVEVHNAKTKPREEQFNSTFRVVSVLTVVHQDWLNGKEYKCKVSNKGLPAPIEKTISKTKGQPREPQVYTLPPCRDELTKNQVSLWCLVKGFYPSDIAVEWESNGQPENNYKTTPPVLDSDGSFFLYSKLTVDKSRWQQGNVFSCSVMHEALHNHYTQKSLSLSPGK
heavy 2: EVQLVESGGGLVKPGGSLRLSCAASGFSFSNSAMSWVRQAPGKGLEWVSTISSGDSYTYYADSVKGRFTISRDNAKNSLYLQMNSLRAEDTAVYYCARQGYGNALDYWGQGTLVTVSSASTKGPSVFPLAPSSKSTSGGTAALGCLVKDYFPEPVTVSWNSGALTSGVHTFPAVLQSSGLYSLSSVVTVPSSSLGTQTYICNVNHKPSNTKVDKKVEPKSCDKTHTAPAPAPAPAPAPAPAPQVQLVESGGGVVQPGRSLRLSCAASGFTFSTYAMNWVRQAPGKGLEWVGRIRSKYNNYATYYADSVKDRFTISRDDSKNTLYLQMNSLRGEDTAVYYCARHGNFGNSYVSWFAYWGQGTLVTVSSGGGGSGGGGSGGGGSQTVVTQEPSLTVSPGGTVTLTCRSSTGAVTTSNYANWVQQKPGQAPRGLIGGTNKRAPGVPARFSGSLLGGKAALTLSGVQPEDEAEYTCALWYSNLWVFGGGTKVEIKGGGGSDKTHTCPPCPAPPVAGPSVFLFPPKPKDTLMISRTPEVTCVVVDVSHEAPEVQFNWYVDGVEVHNAKTKPREEQFNSTFRVVSVLTVVHQDWLNGKEYKCKVSNKGLPAPIEKTISKTKGQPREPQVCTLPPSRDELTKNQVSLSCAVKGFYPSDIAVEWESNGQPENNYKTTPPVLDSDGSFFLVSKLTVDKSRWQQGNVFSCSVMHEALHNHYTQKSLSLSPGK
notes: CSBODY structure: two 1E9.2 Fab arms; second heavy chain (first heavy entry) and first heavy chain with anti-CD3 scFv (Di6-2) between CH1 and Fc2
B2: bispecific antibody Y17 (bispecific antibody, human IgG1, kappa)
light: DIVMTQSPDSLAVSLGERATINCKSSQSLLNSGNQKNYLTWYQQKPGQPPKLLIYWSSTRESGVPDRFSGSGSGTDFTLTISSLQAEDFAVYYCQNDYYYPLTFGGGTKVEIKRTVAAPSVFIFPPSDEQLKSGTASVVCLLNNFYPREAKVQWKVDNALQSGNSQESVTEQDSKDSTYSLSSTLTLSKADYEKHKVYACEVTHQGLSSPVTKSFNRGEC
heavy: EVQLVESGGGLVKPGGSLRLSCAASGFSFSNSAMSWVRQAPGKGLEWVSTISSGDSYTYYADSVKGRFTISRDNAKNSLYLQMNSLRAEDTAVYYCARQGYGNALDYWGQGTLVTVSSASTKGPSVFPLAPSSKSTSGGTAALGCLVKDYFPEPVTVSWNSGALTSGVHTFPAVLQSSGLYSLSSVVTVPSSSLGTQTYICNVNHKPSNTKVDKKVEPKSCDKTHTCPPCPAPPVAGPSVFLFPPKPKDTLMISRTPEVTCVVVDVSHEAPEVQFNWYVDGVEVHNAKTKPREEQFNSTFRVVSVLTVVHQDWLNGKEYKCKVSNKGLPAPIEKTISKTKGQPREPQVYTLPPCRDELTKNQVSLWCLVKGFYPSDIAVEWESNGQPENNYKTTPPVLDSDGSFFLYSKLTVDKSRWQQGNVFSCSVMHEALHNHYTQKSLSLSPGK
chain: QVQLVESGGGVVQPGRSLRLSCAASGFTFSTYAMNWVRQAPGKGLEWVGRIRSKYNNYATYYADSVKDRFTISRDDSKNTLYLQMNSLRGEDTAVYYCARHGNFGNSYVSWFAYWGQGTLVTVSSGGGGSGGGGSGGGGSQTVVTQEPSLTVSPGGTVTLTCRSSTGAVTTSNYANWVQQKPGQAPRGLIGGTNKRAPGVPARFSGSLLGGKAALTLSGVQPEDEAEYTCALWYSNLWVFGGGTKVEIKGRGRGSDKTHTCPPCPAPPVAGPSVFLFPPKPKDTLMISRTPEVTCVVVDVSHEAPEVQFNWYVDGVEVHNAKTKPREEQFNSTFRVVSVLTVVHQDWLNGKEYKCKVSNKGLPAPIEKTISKTKGQPREPQVCTLPPSRDELTKNQVSLSCAVKGFYPSDIAVEWESNGQPENNYKTTPPVLDSDGSFFLVSKLTVDKSRWQQGNVFSCSVMHEALHNHYTQKSLSLSPGK
notes: YBODY structure: anti-CLDN18.2 Fab arm (1E9.2) and second monomer anti-CD3 scFv (Di6-2)-Fc

What was measured:
Human CLDN18.2 [1] = molecular target: Human CLDN18.2 (human); experiment: cell-based or functional assay
Human CLDN18.1 = molecular target: T1, Human CLDN18.1 (human, UniProt P56856 1-261); experiment: flow cytometry, 293T-hCLDN18.1 cells
T1 construct: also called hCLDN18.1

Human CLDN18.2 [2] = molecular target: T2, Human CLDN18.2 (human); experiment: flow cytometry, NUGC4-hCLDN18.2 cells
T2 construct: the cell line is named under assay; also called hCLDN18.2; human CLDN18.2 antigen
Description: NUGC4 and NUGC4-hCLDN18.2 cells were cultured, digested with pancreatin and centrifuged to collect cells. The cells were collected and resuspended in buffer (PBS+1% FBS) at 1×10⁴ cells/well in a 96-well plate at 100 μL per well. Then the mixture was centrifuged at 350×g for 5 min, and the supernatant was removed.

human CD3 antigen = molecular target: T3, human CD3 antigen (human, UniProt P07766 23-126); experiment: SPR (Biacore T200), human CD3 antigen on CM5 chip
T3 construct: also called Human CD3ϵ
Description: After the detection was completed, data fitting was carried out on the result pattern by adopting Biacore T200 Evaluation Software in a 1:1 binding fitting mode to obtain an equilibrium dissociation constant (KD).

Human CLDN18.2 [3] = molecular target: T2, Human CLDN18.2; experiment: flow cytometry, NUGC4 cells (endogenous CLDN18.2)

Binder | EC50 value for killing effect on NUGC4-hCLDN18.2 cells (Human CLDN18.2 [1]) [nM] | EC50 value for killing effect on NUGC4 cells (Human CLDN18.2 [1]) [nM] | binding result (Human CLDN18.1) | EC50 (Human CLDN18.2 [2]) [nM] | Kd (human CD3 antigen) [nM] | EC50 (Human CLDN18.2 [3]) [nM]
B1 | < 0.01 | < 0.01 | no binding | < 50 | < 15 | < 100
B2 | < 0.01 | < 0.01 | no binding | < 50 | < 15 | < 100
